Source: patent publication US7268215B2, “Photoprotein derived from okinawan squid and gene encoding the photoprotein” (Nagoya University, priority 2000, dated 2007)

Assays:
[1] = bioluminescence assay of recombinant symplectin protein with dehydrocoeleneterazine; assay type: biochemical, Symplectoteuthis oualaniensis; conditions: complex with dehydrocoeleneterazine, 37° C. for 30 min, alkaline buffer (pH9.8) added
Protocol: The PCR products were separated on an agarose gel succeeded by digestion with EcoRI and SalI. Then it was ligated to EcoRI and SalI site of pET-32a(+) to construct a vector. The vector was designated pET-60 and it was utilized for expression of symplectin protein. The E. coli strain BL21(DE3)pLysS, transformed by pET-60, was grown in Luria broth (LB) at 37° C. Expression of the protein was induced by addition of isopropyl-1-thio-b-D-galactopyranoside (IPTG). The cells were harvested by centrifugation and lysed by sonication in a buffer. The homogenate was centrifuged, and the supernatant was subjected to affinity chromatography using His-Bind Resin. The fusion protein with thioredoxin was purified by a step-wise manner elution with varied imidazole concentrations. The recombinant symplectin protein was obtained as a fusion protein with thioredoxin, according to the manipulation described above. The recombinant symplectin protein was subjected to bioluminescence assay. The recombinant symplectin protein was suspended in a buffer, mixed with chromophore dehydrocoeleneterazine, then protein-chromophore complex was formed by incubation at 37° C. for 30 min. The alkaline buffer (pH9.8) was added to increase pH of the protein-chromophore complex solution and the bioluminescence reaction was initiated. […]

[2] = enzymatic characteristics and cation trigger of luminescence; assay type: biochemical, Symplectoteuthis oualaniensis; conditions: different from aequorin
From the text: The photoprotein of okinawan squid has a low solubility and there is no conventional method for research of the protein. When a surfactant to solubilize the membrane protein is used, luminescent activity of the okinawan squid photoprotein would be disrupted. By addition of KCl (a caotropic salt) to a buffer, the protein can be solubilized without disrupting its activity. The effects of various kinds of salts on the objective protein are examined in the terms of extraction efficiency and luminescent activity. […] Enzymatic characteristic of okinawan squid was investigated. […] (Isobe M. et al., Pure and Appl. Chem., (1998) Vol.70, 2085-2092).

[3] = assay type: physicochemical, Symplectoteuthis oualaniensis
From the text: The photoprotein of okinawan squid has a low solubility and there is no conventional method for research of the protein. When a surfactant to solubilize the membrane protein is used, luminescent activity of the okinawan squid photoprotein would be disrupted. By addition of KCl (a caotropic salt) to a buffer, the protein can be solubilized without disrupting its activity. The effects of various kinds of salts on the objective protein are examined in the terms of extraction efficiency and luminescent activity. […] Enzymatic characteristic of okinawan squid was investigated. […] (Isobe M. et al., Pure and Appl. Chem., (1998) Vol.70, 2085-2092). From photogenic organ of okinawan squid, collected at the sea area of Okinawa Prefecture Japan, the photoprotein having a molecular mass of 60 kDa was separated and purified as a luminescent ability as an index. This photoprotein was soluble in a solution containing KCl at a concentration of more than 0.6M. At first, homogenate of the photogenic organ containing symplectin was washed by KCl solution (pH 6.0) of 0.4M. Then, it was extracted with a KCl solution of 0.6M, and a portion thereof was added to a buffer having pH of 8.0 to confirm the luminescent ability. Because of high salt concentration, means of chromatography applicable for purification of the extract was limited.

[4] = luminescent ability of purified photoprotein and its trypsin fragments; assay type: biochemical, Symplectoteuthis oualaniensis; conditions: purified protein before and after trypsin digestion
From the text: From photogenic organ of okinawan squid, collected at the sea area of Okinawa Prefecture Japan, the photoprotein having a molecular mass of 60 kDa was separated and purified as a luminescent ability as an index. This photoprotein was soluble in a solution containing KCl at a concentration of more than 0.6M. At first, homogenate of the photogenic organ containing symplectin was washed by KCl solution (pH 6.0) of 0.4M. Then, it was extracted with a KCl solution of 0.6M, and a portion thereof was added to a buffer having pH of 8.0 to confirm the luminescent ability. Because of high salt concentration, means of chromatography applicable for purification of the extract was limited. When the purified protein was hydrolyzed by trypsin, two products having molecular masses of 40 kDa and 15 kDa were produced from the original protein of 60 kDa (FIG. 2). […] Fragments of 40 kDa and 15 kDa were recognized after trypsin digestion, particularly in lane 3 corresponding to the purified protein. […] However, the amino acid sequence of the 15 kDa protein was the same as the N-terminal amino acid sequence of the 60 kDa protein. […] Incidentally, the active region responsible for the photogenic function would exist at the C-terminal portion corresponding to the 40 kDa protein.

B1: recombinant symplectin protein: recombinant symplectin expressed in E. coli from pET-60 as a fusion protein with thioredoxin (protein)
chain: FEHQVIPPKTDMETREEALDALKLNSDVYHEAVLESRSKGVKMIVFPEYGLYDINTLTRTRMDLMAEKVPHPKHGHRNPCDEPEYQTQSSEMLRTFSCMAKENDMYMVVNMAGREPCRRATEPECPGDKQLLYNTNVAFNNEGDVVARYYKTHLFWEEGWFNSSKNYEMALWDTPIGKFGTFMCFDFQAVQLIEQYNVRHIAYPASWVNLPPIYQSIQSHSAFARFAKINLLAASVHRLETSTYGSGIYSPNGAEIFYFRPDIPKSKLLVAEILPIHVKKPEQTVVNKDNPVFPSEDDDVQDLFDRGDFAFLKYKRMTTRAGTVEVCQKSFCCKARYAVKDRFKEVYAVGVYDGLLSAGANNLYFQICTVIQCPHKKCGLKISKVRTHFKYLNLRADGWLDRYVFPSYTVMYNNYIALDPFVWNYTVAGGIETKPGTSTPLHSANLVARIYAKDSSKHVHQPHPIDEGVIKMAVKYMLYVMAAYVYAAS
modifications: left off: large carriers; things letters cannot carry
notes: recombinant symplectin expressed in E. coli from pET-60 as a fusion protein with thioredoxin
With B1 the “luminescence monitored by lumiphotometer” value [1] was “obvious luminescence was detected”.

B2: symplectin: photoprotein derived from okinawan squid (Symplectoteuthis oualaniensis), 501 amino acids, SEQ ID NO:1 (protein, listed as Symplectoteuthis oualaniensis)
chain: YVRPVSSWKVAVFEHQVIPPKTDMETREEALDALKLNSDVYHEAVLESRSKGVKMIVFPEYGLYDINTLTRTRMDLMAEKVPHPKHGHRNPCDEPEYQTQSSEMLRTFSCMAKENDMYMVVNMAGREPCRRATEPECPGDKQLLYNTNVAFNNEGDVVARYYKTHLFWEEGWFNSSKNYEMALWDTPIGKFGTFMCFDFQAVQLIEQYNVRHIAYPASWVNLPPIYQSIQSHSAFARFAKINLLAASVHRLETSTYGSGIYSPNGAEIFYFRPDIPKSKLLVAEILPIHVKKPEQTVVNKDNPVFPSEDDDVQDLFDRGDFAFLKYKRMTTRAGTVEVCQKSFCCKARYAVKDRFKEVYAVGVYDGLLSAGANNLYFQICTVIQCPHKKCGLKISKVRTHFKYLNLRADGWLDRYVFPSYTVMYNNYIALDPFVWNYTVAGGIETKPGTSTPLHSANLVARIYAKDSSKHVHQPHPIDEGVIKMAVKYMLYVMAAYVYAAS
For B2, the “triggering of luminescence by a divalent cation” value [2] was “not triggered by a divalent cation”, the “KCl concentration of solution in which the photoprotein is soluble” value [3] was “more than 0.6 M” and the “solubility into an aqueous solution” value [3] was “low”. For the same molecule, the “ability to emit luminescence” value [4] was “exhibited luminescence”.

B3: 40 kDa protein: 40 kDa trypsin fragment of symplectin, C-terminal portion, SEQ ID NO:2 (protein, listed as Symplectoteuthis oualaniensis)
chain: ATEPECPGDKQLLYNTNVAFNNEGDVVARYYKTHLFWEEGWFNSSKNYEMALWDTPIGKFGTFMCFDFQAVQLIEQYNVRHIAYPASWVNLPPIYQSIQSHSAFARFAKINLLAASVHRLETSTYGSGIYSPNGAEIFYFRPDIPKSKLLVAEILPIHVKKPEQTVVNFDNPVFPSEDDDVQDLFDRGDFAFLKYKRMTTRAGTVEVCQKSFCCKARYAVKDRFKEVYAVGVYDGLLSAGANNLYFQICTVIQCPHKKCGLKISKVRTHFKYLNLRADGWLDRYVFPSYTVMYNNYIALDPFVWNYTVAGGIETKPGTSTPLHSANLVARIYAKDSSKHVHQPHPIDEGVIKMAVKYMLYVMAAYVYAAS
In the case of B3, the “ability to emit luminescence” value [4] is reported as “exhibited luminescence” and the “ability to emit luminescence” value ([4]; listed as 40 kDa fragment) is reported as “exhibited photogenic activity”.
